This test addresses T1, A beta oligomer (synthetic A beta1-40, HCl form, 0.1 mg/ml in PBS, incubated at 37 degrees C for one hour) (UniProt P05067 672-711).
T1 construct: domain: A beta1-40; non-fibrous multimer of the peptide; also called A beta 1-40 oligomer
Kind of test: SPR (Biacore 3000). As for the experimental part: The analysis was carried out by Surface Plasmon Resonance (SPR) using Biacore 3000 (GE Healthcare Sciences).
(Surface plasmon resonance follows binding to a sensor surface in real time, without labels.)

B1: IR-107 antibody (antibody, mouse IgG2b, V domains shown)
VH: DVQLVESGGGLVQPGGSRKLSCAASGFTFSSFGMHWVRQAPEKGLEWVAYISSGSSTIYYADTVKGRFTISRDNPKNTLFLQMTSLRSEDTAMYYCARYGYAMDYWGQGTSVTVSS
VL: DVLMTQTPLSLPVSLGDQASISCRSSQSIVHSNGNTYLEWYLQKPGQSPKLLIYKVSNRFSGVPDRFSGSGSGTDFTLKISRVEAEDLGVYYCFQGSHVPPTFGGGTKLEIK
notes: mouse IgG2b
Usually Kd stands for a measure of binding affinity in units of concentration. Higher therefore signals a looser complex. What is called koff is a measure of how fast the partners let go of each other. A higher koff goes with fast dissociation. A word on the kon: it is the second-order rate constant of association. A higher kon goes with faster complex formation. Consider B1, for which binding was characterised by a dissociation constant (Kd) of 339 nM, the koff was 0.1 s⁻¹ and the association rate constant (kon) worked out at 295000 M⁻¹ s⁻¹.

B2: IR-132 antibody (antibody, mouse IgG2b, V domains shown)
VH: DVQLVESGGGLVQPGGSRKLSCAASGFTFSSFGMHWVRQAPEKGLEWVAYISSGSSTIYYADTVKGRFTISRDNPKNTLFLQMTSLRSEDTAMYYCARDGNYVGWFAYWGQGTLVTVSA
VL: DVVMTQTPLSLPVSLGDQASISCRSSQSLVHSNGNTYLHWYLQKPGQSPKLLIYKVSNRFSGVPDRFSGSGSGTDFTLKISRVEAEDLGVYFCSQSTHVPLTFGAGTKLELK
notes: mouse IgG2b
Turning to B2, the Kd came out at 22.1 nM, the koff amounted to 0.00517 s⁻¹ and the kon was determined as 234000 M⁻¹ s⁻¹.

B3: IR-139 antibody (antibody, mouse IgG2b, V domains shown)
VH: DVQLVESGGGLVQPGGSRKLSCAASGFTFSSFGMHWVRQAPEKGLEWVAYISSGSSTIYYADTVKGRFTISRDNPKNTLFLQMTSLRSEDTAMYYCARDEGYFDYWGQGTTLTVSS
VL: DVVMTQTPLSLPVSLGDQASISCRSSQSLVHSNGNTYLHWYLQKPGQSPKLLIYKVSNRFSGVPDRFSGSGSGTDFTLKISRVEAEDLGVYFCSQSTHVPLTFGAGTKLELK
notes: mouse IgG2b
Turning to B3, the Kd came to 50.6 nM, the koff was found to be 0.00165 s⁻¹ and the on-rate constant (kon) came out at 32600 M⁻¹ s⁻¹.

B4: IR-150 antibody (antibody, mouse IgG2b, V domains shown)
VH: not shown
VL: DVVMTQTPLSLPVSLGDQASISCRSSQSLVHSNGNTYLHWYLQKPGQSPKLLIYKVSNRFSGVPDRFSGSGSGTDFTLKISRVEAEDLGVYFCSQSTHVPLTFGAGTKLELK
notes: mouse IgG2b
B4 yielded a Kd of 517 nM, a koff of 0.124 s⁻¹ and a kon of 240000 M⁻¹ s⁻¹.

B5: IR-155 antibody (antibody, V domains shown)
VH: DVQLVESGGGLVQPGGSRKLSCAASGFTFSSFGMHWVRQAPEKGLEWVAYISSGSSTIYYADTVKGRFTISRDNPKNTLFLQMTSLRSEDTAMYYCARLDGYRGDYWGQGTTLTVSS
VL: DVVMTQTPLSLPVSLGDQASISCRSSQSLVHSNGNTYLHWYLQKPGQSPKLLIYKVSNRFSGVPDRFSGSGSGTDFTLKISRVEAEDLGVYFCSQSTHVPLTFGSGTKLEIK
notes: mouse IgG2a
As for B5, binding was characterised by a dissociation constant (Kd) of 1050 nM, the koff stood at 0.37 s⁻¹ and the kon was 351000 M⁻¹ s⁻¹.

B6: IR-117 antibody (antibody, mouse IgG2b, V domains shown)
VH: not shown
VL: DVVMTQTPLSLPVSLGDQASISCRSSQSLVHSNGNTYLHWYLQKPGQSPKLLIYKVSNRFSGVPDRFSGSGSGTDFTLKISRVEAEDLGVYFCSQSTHVPLTFGAGTKLELK
notes: mouse IgG2b
On to B6, for which binding was put at a Kd of 921 nM, the off-rate constant (koff) turned out to be 0.0668 s⁻¹ and the kon turned out to be 72500 M⁻¹ s⁻¹.

B7: IR-118 antibody (antibody, mouse IgG2a, V domains shown)
VH: QVQLKESGPGLVAPSQSLSITCTISGFSLTSYGVHWVRQPPGKGLEWLVVIWSDGSTTYNSALKSRLSISKDNSKSQLFLKMNSLQTDDTAMYYCARHSYRYGLMDYWGQGTSVTVSS
VL: DVVMTQTPLSLPVSLGDQASISCRSSQSLVHSNGNTYLHWYLQKPGQSPKLLIYKVSNRFSGVPDRFSGSGSGTDFTLKISRVEAEDLGVYFCSQSTHVPLTFGAGTKLELK
notes: mouse IgG2a
Regarding B7, the Kd was determined as 27.5 nM, the off-rate constant (koff) is 0.00153 s⁻¹ and the on-rate (kon) was determined as 55700 M⁻¹ s⁻¹.

B8: IR-154 antibody (antibody, V domains shown)
VH: DVQLVESGGGLVQPGGSRKLSCAASGFSFSSFGMHWVRQAPEKGLEWVAYISSGRSTIYYADTVKGRFTISRDNPKNTLFLQMTSLRSEDTAMYYCARLRGNLDYAMDYWGQGTSVTVSS
VL: DVVMTQTPLSLPVSLGDQASISCRSSQSLVHSNGNTYLHWYLQKPGQSPKLLIYKVSNRFSGVPDRFSGSGSGTDFTLKISRVEAEDLGVYFCSQSTHVPFTFGSGTKLEIK
notes: mouse IgG2a
In turn, B8 had a Kd of 1050 nM, an off-rate (koff) of 0.41 s⁻¹ and an on-rate (kon) of 389000 M⁻¹ s⁻¹.

B9: IR-112 antibody (antibody, mouse IgG2a, V domains shown)
VH: QVTLKESGPGILKPSQTLSLTCSFSGFSLSTSGMGVGWIRQPSGKGLEWLAHIWWDDDKYYNPSLKSQLTISKDTSRNQVFLKITSVDTADTATYYCARRSMITTNDYFDYWGQGTTLTVSS
VL: DVLMTQTPLSLPVSLGDQASISCRSSQSIVHSNGNTYLEWYLQKPGQSPKLLIYKVSNRFSGVPDRFSGSGSGTDFTLKISRVEAEDLGVYYCFQGSHVPPTFGGGTKLEIK
notes: mouse IgG2a
As to B9, the Kd came to 41.1 nM, the koff stood at 0.00376 s⁻¹ and the kon worked out at 91400 M⁻¹ s⁻¹.

B10: IR-110 antibody (antibody, mouse IgG2b, V domains shown)
VH: DVQLVESGGGLVQPGGSRKLSCAASGFTFSSFGMHWVRQAPEKGLEWVAYISSGSSTIYYADTVKGRFTISRDNPKNTLFLQMTSLRSEDTAMYYCASYGNYGAYWGQGTLVTVSA
VL: DVLMTQTPLSLPVSLGDQASISCRSSQSIVHSNGNTYLEWYLQKPGQSPKLLIYKVSNRFSGVPDRFSGSGSGTDFTLKISRVEAEDLGVYYCFQGSHVPPTFGGGTKLEIK
notes: mouse IgG2b
B10 came in with an equilibrium dissociation constant (Kd) of 177 nM, an off-rate (koff) of 0.0719 s⁻¹ and an on-rate constant (kon) of 407000 M⁻¹ s⁻¹.

B11: IR-135 antibody (antibody, V domains shown)
VH: QVQLQQSGAELAKPGASVKMSCKASGYTFTSYWMHWVKQRPGQGLEWIGYINPSTGYTEYNQKFKDKATLTADKSSSTAYMQLSSLTSEDSAVYYCDYYGSSYGYFDVWGAGTTVTVSS
VL: DVVMTQTPLSLPVSLGDQASISCRSSQSLVHSNGNTYLHWYLQKPGQSPKLLIYKVSNRFSGVPDRFSGSGSGTDFTLKISRVEAEDLGVFFCSQSTHVPLTFGAGTKLELK
notes: mouse IgG2a
As for B11, the Kd was determined as 1290 nM, the off-rate constant (koff) was found to be 0.116 s⁻¹ and the association rate constant (kon) is 89900 M⁻¹ s⁻¹.
